Test results taken from patent US20210380688A1 (SHENZHEN UNIVERSITY, published 2021).

Molecular target: ROR2 mutant with the deletion of the d-Kringle region, flag-tagged (B4) (human, UniProt Q01974 34-943, limits assumed)
Experiment: western blot of lysate of transfected 293T cells
From the text: In order to find the epitope bound by the B16 chimeric antibody, flag-tagged mutant plasmids (B1-B8) from different regions of the ROR2 protein were constructed (The Flag tag is a polypeptide fragment composed of eight hydrophilic amino acids […], which can be fused with proteins without occupying protein epitopes or structural domains, avoiding affecting the function, secretion, and transport properties of the protein. The flag tag is used to mark the target protein, if the tag is expressed, the target protein will also be expressed). The plasmid used is pcDNA3.0 plasmid. The full-length sequence of human-derived ROR2 protein includes SP region, Ig-like region, CRD region, Kringle region, Kinase region, S/T1 region, Pro region and S/T2 region. Each part and the corresponding function can refer to Debebe Z, Rathmell W K. Ror2 as a Therapeutic Target in Cancer [J]. Pharmacology & Therapeutics, 2015, 150:143-148. […]
After 48 hours of expression, the cells transfected with mutant plasmids in different regions of ROR2 were lysed. By western blot, the expression of ROR2 protein was detected with B16 chimeric antibody, Flag antibody and Santa Cruz's ROR2 antibody (Cat. No.: sc-374174).

ROR2 mutant with the deletion of the d-Kringle region, flag-tagged (B4), sequence (Q01974 other isoform, or with tags, fused parts or gaps mutant limits assumed): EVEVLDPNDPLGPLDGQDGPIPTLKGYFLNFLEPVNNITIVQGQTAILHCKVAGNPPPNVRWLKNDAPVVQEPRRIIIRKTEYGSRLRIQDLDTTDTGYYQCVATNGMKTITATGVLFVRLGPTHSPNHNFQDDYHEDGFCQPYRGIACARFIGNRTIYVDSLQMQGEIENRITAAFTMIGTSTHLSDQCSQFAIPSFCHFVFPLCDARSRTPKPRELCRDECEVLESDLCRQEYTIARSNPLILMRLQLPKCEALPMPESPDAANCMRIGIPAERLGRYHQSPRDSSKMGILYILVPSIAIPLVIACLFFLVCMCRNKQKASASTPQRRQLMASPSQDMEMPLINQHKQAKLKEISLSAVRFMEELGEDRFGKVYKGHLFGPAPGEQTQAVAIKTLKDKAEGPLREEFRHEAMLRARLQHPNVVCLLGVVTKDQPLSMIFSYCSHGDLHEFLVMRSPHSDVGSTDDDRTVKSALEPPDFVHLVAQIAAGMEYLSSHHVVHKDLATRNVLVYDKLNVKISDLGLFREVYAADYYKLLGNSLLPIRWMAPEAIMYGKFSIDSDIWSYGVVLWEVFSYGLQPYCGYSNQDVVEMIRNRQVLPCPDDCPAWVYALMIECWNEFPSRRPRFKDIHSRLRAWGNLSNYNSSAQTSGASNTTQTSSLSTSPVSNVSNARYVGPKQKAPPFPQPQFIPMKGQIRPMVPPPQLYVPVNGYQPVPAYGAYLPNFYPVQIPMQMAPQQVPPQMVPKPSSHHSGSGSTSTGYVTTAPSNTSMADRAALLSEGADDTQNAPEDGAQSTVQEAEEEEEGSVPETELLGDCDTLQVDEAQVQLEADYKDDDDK

B1: B16 chimeric antibody (antibody, human IgG1, kappa, V domains shown)
VH: QLQLQQSGPELVKPGASVRMSCKAAGYTFTSYLMHWVKQRPGQDLEWIGYINPYNDGTKYNEKFKDKATLTSDKSSSTVYMELSSLTSEDSAVYYCARSDVYYGVRFAYWGQGTLVTVSA
VL: DIVLTQSPAIMSASPGEKVTMTCSASSSVTYTYWYQQKPGSSPRLLIYDTSNLASGVPVRFSGSGSGTSYSLTISRMEAEDAATYYCQQWSSYPFTFGSGTKLEIKR
notes: also called anti-ROR2 monoclonal antibody B16 chimeric antibody; B16 antibody
**Q.** Does B1 bind?
**A.** no binding
